Experiment [1] addresses CtMrs2 106-539 in MSP1D1/POPC nanodiscs, open-state sample prepared with EDTA (Chaetomium thermophilum). The experiment in a line: cryo-EM structure; open state: MSP1D1/POPC nanodiscs, 50 mM HEPES pH 7.5, 100 mM NaCl, 2 mM EDTA, 1 mM fluorinated Fos-choline-8; C1 and C5 maps.
Experiment [2] concerns the target CtMrs2 106-539 lacking GFP (TEV-cleaved), in MSP1D1/POPC nanodiscs, closed-state sample with Mg2+ (Chaetomium thermophilum). The experiment in a line: cryo-EM structure; closed state: MSP1D1/POPC nanodiscs, 50 mM HEPES-Na pH 7.5, 100 mM NaCl, 2 mM MgCl2 plus additional 10 mM MgCl2; C1 and C5 maps.
The target of experiment [3] is GFP-fused CtMrs2 106-539 E374A;E378A (Chaetomium thermophilum). The experiment in a line: SEC; purified GFP-fused CtMrs2 forms used for the limited proteolysis assay; final SEC buffer as buffer A but pH 8.0, DDM.
Experiment [4] addresses GFP-fused CtMrs2 106-539 E374R (Chaetomium thermophilum). The description is as above.
Experiment [5] addresses GFP-fused CtMrs2 106-539 S328A;T329A (Chaetomium thermophilum). The experiment is described as above.
Experiment [6] deals with GFP-fused CtMrs2 106-539 S396A;S397A (Chaetomium thermophilum). The experiment is described as above.
The target of experiment [7] is GFP-fused CtMrs2 (His10-GFP-G4S-TEV-CtMrs2 106-539), wild type (Chaetomium thermophilum). The experiment in a line: native gel or EMSA; Coomassie-stained blue native PAGE of purified detergent-solubilised GFP-fused CtMrs2.
The target is the same in experiment [8]. Nature of the experiment: SEC; purified GFP-fused CtMrs2 forms used for the limited proteolysis assay; final SEC buffer as buffer A but pH 8.0, DDM.
For experiment [9] the target is unchanged. Nature of the experiment: SEC; detergent-solubilised GFP-fused CtMrs2 on Superose 6; buffer A (50 mM HEPES-NaOH pH 7.5, 150 mM NaCl, 10% glycerol) with 0.05% DDM and 2 mM MgCl2.

As for “CtMrs2 106-539 in MSP1D1/POPC nanodiscs, open-state sample prepared with EDTA (natural protein)”, the stoichiometry N in experiment [1] is 5.
For the substance “CtMrs2 106-539 lacking GFP (TEV-cleaved), in MSP1D1/POPC nanodiscs, closed-state sample with Mg2+ (natural protein)”, the stoichiometry N in experiment [2] was 5.
In experiment [3], “GFP-fused CtMrs2 106-539 E374A;E378A (natural protein)” registered a stoichiometry N of 5.
In turn, “GFP-fused CtMrs2 106-539 E374R (natural protein)” gave a stoichiometry N in [4] of 5.
“GFP-fused CtMrs2 106-539 S328A;T329A (natural protein)”: the stoichiometry N in [5] turned out to be 5.
“GFP-fused CtMrs2 106-539 S396A;S397A (natural protein)” had a stoichiometry N in experiment [6] of 5.
As to “GFP-fused CtMrs2 (His10-GFP-G4S-TEV-CtMrs2 106-539), wild type (natural protein)”, the stoichiometry N in [7], in experiment [8] and in [9] was 5 in each case.

Source of the values: article PMC11919701.
